Results as given in US20200048360A1 (TRACON PHARMACEUTICALS, published 2020).
Where two headings read alike, the source gives them in different places.

T1: human CD105 (R&D Systems, Catalog No. 1097-EN) (human, UniProt P17813 26-586)
T1 construct: Captured on the plate by mouse anti-human CD105 (Southern Biotechnologies 9811-01); also called endoglin
T1 sequence (looked up): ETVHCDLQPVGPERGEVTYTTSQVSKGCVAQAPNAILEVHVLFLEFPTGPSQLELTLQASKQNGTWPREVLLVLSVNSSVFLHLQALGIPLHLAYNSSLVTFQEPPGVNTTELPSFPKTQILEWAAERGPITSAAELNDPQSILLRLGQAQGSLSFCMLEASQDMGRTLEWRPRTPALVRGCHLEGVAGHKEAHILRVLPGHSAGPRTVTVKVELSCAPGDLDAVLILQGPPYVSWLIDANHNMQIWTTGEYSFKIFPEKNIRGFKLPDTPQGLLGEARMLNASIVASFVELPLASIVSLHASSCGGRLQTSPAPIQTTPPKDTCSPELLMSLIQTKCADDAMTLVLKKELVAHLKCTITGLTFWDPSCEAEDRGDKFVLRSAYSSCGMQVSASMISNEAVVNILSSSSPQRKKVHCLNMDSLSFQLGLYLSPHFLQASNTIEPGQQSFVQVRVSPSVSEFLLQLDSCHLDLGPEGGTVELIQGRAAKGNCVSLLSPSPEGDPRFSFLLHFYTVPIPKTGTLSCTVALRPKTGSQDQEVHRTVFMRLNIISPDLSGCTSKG

T2: recombinant endoglin (UniProt P17813 26-586, limits assumed)
T2 sequence (looked up): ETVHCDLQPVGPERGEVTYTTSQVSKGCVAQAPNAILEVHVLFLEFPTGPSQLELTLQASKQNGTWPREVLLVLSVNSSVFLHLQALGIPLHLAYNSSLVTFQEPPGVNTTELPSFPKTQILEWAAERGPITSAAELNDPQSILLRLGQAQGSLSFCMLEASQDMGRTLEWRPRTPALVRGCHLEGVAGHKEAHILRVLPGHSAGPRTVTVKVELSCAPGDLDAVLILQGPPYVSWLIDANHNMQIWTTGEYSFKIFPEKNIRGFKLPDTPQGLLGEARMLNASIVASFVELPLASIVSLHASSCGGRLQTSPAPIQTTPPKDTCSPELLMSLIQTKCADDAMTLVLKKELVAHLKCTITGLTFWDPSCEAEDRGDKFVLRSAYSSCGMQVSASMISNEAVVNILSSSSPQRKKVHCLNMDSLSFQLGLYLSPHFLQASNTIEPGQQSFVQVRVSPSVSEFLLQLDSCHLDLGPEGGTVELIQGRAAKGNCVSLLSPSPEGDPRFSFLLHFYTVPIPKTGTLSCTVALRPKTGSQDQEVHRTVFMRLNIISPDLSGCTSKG


Columns and labels:
[1] = target: T1, human CD105 (R&D Systems, Catalog No. …); assay: competition ELISA on captured human CD105; competitor biotinylated chimeric anti-CD105
Protocol: Antibodies were tested in a competition ELISA for binding to CD105 against biotinylated chimeric anti-CD105. Briefly, chimeric anti-CD105 was biotinylated using a micro-biotinylation kit (Sigma, Catalog No. BTAG-1KT) following the manufacturer's instructions. […] Binding of the biotinylated chimeric antibody was detected via streptavidin-HRP (Sigma, Catalog No. 55512) and TMB substrate (Sigma, Catalog No. T0440). OD450 nm values were measured on a Dynex MRX TCII plate reader. The results of the competition analysis are illustrated in FIGS. 7 and 8. […] To allow for comparisons within and between experiments, IC50 values of humanized or humanized/deimmunized variants were normalized against the reference antibody that was included on each plate to give a value for the fold difference. IC50 values are relative to chimeric anti-CD105 and are representative of three experiments. Summary ELISA data are presented in Table 1 and include antibody expression levels […]) as assayed in saturated static cultures.

[2] = target: T1, human CD105 (R&D Systems, Catalog No. …); assay: ELISA with OD450 falling against test antibody concentration (competition format of paragraph 712: biotinylated chimeric anti-CD105 on captured human CD105; the legend says only 'binding assay data')
recombinant endoglin = target: T2, recombinant endoglin; assay: BIAcore SPR, antibody captured on protein A chip, recombinant endoglin as analyte, 25 C
Protocol: Affinity of antibodies can be assessed using, for example, BIAcore analysis using standard protocols. Briefly, protein A is chemically coupled to a BIAcore CM5 chip, with the amount of protein A immobilized corresponding to ˜2000 R U. Subsequent steps are performed in a running buffer of 10 mM HEPES, 150 mM NaCl, 3 mM EDTA, 0.05% TWEEN, pH=7.4, at 25 degrees Celsius using a 10 Hz data collection rate. Anti-endoglin antibody (10 nM) is captured at a 10 μL/min flow rate by the immobilized protein A on the BIAcore chip: typically, capture times of 20, 40 and 80 seconds allow the capture of antibody densities corresponding to 130 RU, 330 RU and 570 RU, respectively. Start-up cycles are performed using running buffer at a flow rate of 40 μl/min, a contact time of 90 seconds and a dissociation time of 90 seconds. Sample cycles are performed using recombinant endoglin at concentrations ranging from 0 to 40 nM. Endoglin is passed over the BIAcore chip containing captured antibody at a flow rate of 40 μl/min with a contact time of 525 seconds and dissociation time of 2500 seconds. Eight sample cycles are typically performed at each antibody capture density Regeneration of the chip is accomplished using 10 mM glycine pH=1.7. Data analysis is performed using BIAcore T100 Evaluation Software v1.1 Signals generated using BIAcore chips with different captured antibody densities are compared and data generated in the absence of recombinant endoglin are used to adjust for the intraassay blank signal. For fitting of the data, the Rₘₐₓ is allowed to float to account for variation in capture levels of each antibody in each cycle. Data from each capture density is fitted simultaneously during analysis of each antibody. BIAcore data are presented in Table 2 for chimeric, humanized and humanized/deimmunized anti-endoglin antibodies, including kₐ (1/Ms), kd (1/s), KD (M) and […] (RU²).

[3] = target: T1, human CD105 (R&D Systems, Catalog No. …); assay: ELISA with OD450 falling against test antibody concentration (competition format of paragraph 712: biotinylated chimeric anti-CD105 on captured human CD105; the legend says only 'binding assay data'); remark: listed apart in the source
[4] = target: T1, human CD105 (R&D Systems, Catalog No. …); assay: as above; remark: listed apart in the source
[5] = target: T1, human CD105 (R&D Systems, Catalog No. …); assay: as above; remark: listed apart in the source
[6] = target: T1, human CD105 (R&D Systems, Catalog No. …); assay: as above; remark: listed apart in the source
[7] = target: T1, human CD105 (R&D Systems, Catalog No. …); assay: as above; remark: listed apart in the source
[8] = target: T1, human CD105 (R&D Systems, Catalog No. …); assay: as above; remark: listed apart in the source
[9] = target: T1, human CD105 (R&D Systems, Catalog No. …); assay: as above; remark: listed apart in the source

Binder | Relative IC50 (fold of chimeric anti-endoglin antibody) [1] | IC50 (read off the curve) [2] [µg/mL] | Kd (recombinant endoglin) [nM] | koff (recombinant endoglin) [s⁻¹] | kon (recombinant endoglin) [M⁻¹ s⁻¹] | IC50 (read off the curve) [3] [µg/mL] | IC50 (read off the curve) [4] [µg/mL] | IC50 (read off the curve) [5] [µg/mL] | IC50 (read off the curve) [6] [µg/mL] | IC50 (read off the curve) [7] [µg/mL] | IC50 (read off the curve) [8] [µg/mL] | IC50 (read off the curve) [9] [µg/mL]
VK2AAVH1A2 (antibody, V domains shown, IgG1 heavy chain, kappa light chain) VH: EVQLVESGGGLVKPGGSLRLSCAASGFTFSDAWMDWVRQAPGKGLEWVGEARSKASNHATYYAESVKGRFTISRDDSKNTLYLQMNSLKTEDTAVYYCTRWRRFFDSWGQGTLVTVSS VL: DIQLTQSPSSLSASVGDRATITCRASSSVSYMHWYQQKPGKAPKPWAYATSNLASGVPSRFSGSGSGTDYTLTISSLQPEDFATYYCQQWSSNPLTFGGGTKVEIK | 0.99 fold relative to chimeric | ~0.2 |  |  |  |  |  |  |  |  |  | 
VK1AAVH1R (antibody, V domains shown, IgG1 heavy chain, kappa light chain) VH: EVQLVESGGGLVKPGGSLRLSCAASGFTFSDAWMDWVRQAPGKGLEWVGEIRSRASNHATYYAESVKGRFTISRDDSKNTLYLQMNSLKTEDTAVYYCTRWRRFFDSWGQGTLVTVSS VL: DIQMTQSPSSLSASVGDRATITCRASSSVSYMHWYQQKPGKAPKPWAYATSNLASGVPSRFSGSGSGTDYTLTISSLQPEDFATYYCQQWSSNPLTFGGGTKVEIK | 1.05 fold relative to chimeric |  | 0.533 | 3.41e-05 | 64000 | ~0.2 |  |  |  |  |  | 
VK1AAVH1A2 (antibody, V domains shown, IgG1 heavy chain, kappa light chain; also called humanized/deimmunized anti-endoglin antibody VK1AAVH1A2) VH: EVQLVESGGGLVKPGGSLRLSCAASGFTFSDAWMDWVRQAPGKGLEWVGEARSKASNHATYYAESVKGRFTISRDDSKNTLYLQMNSLKTEDTAVYYCTRWRRFFDSWGQGTLVTVSS VL: DIQMTQSPSSLSASVGDRATITCRASSSVSYMHWYQQKPGKAPKPWAYATSNLASGVPSRFSGSGSGTDYTLTISSLQPEDFATYYCQQWSSNPLTFGGGTKVEIK | 1.12 fold relative to chimeric |  | 0.706 | 3.25e-05 | 46000 |  | ~0.2 |  |  |  |  | 
VK1AAVH1Q (antibody, V domains shown, IgG1 heavy chain, kappa light chain) VH: EVQLVESGGGLVKPGGSLRLSCAASGFTFSDAWMDWVRQAPGKGLEWVGEIRSQASNHATYYAESVKGRFTISRDDSKNTLYLQMNSLKTEDTAVYYCTRWRRFFDSWGQGTLVTVSS VL: DIQMTQSPSSLSASVGDRATITCRASSSVSYMHWYQQKPGKAPKPWAYATSNLASGVPSRFSGSGSGTDYTLTISSLQPEDFATYYCQQWSSNPLTFGGGTKVEIK | 1.3 fold relative to chimeric |  | 0.85 | 3.03e-05 | 35600 |  |  | ~0.2 |  |  |  | 
chimeric anti-CD105 antibody TRC105 (antibody, V domains shown, Chimeric monoclonal antibody with the murine SN6j variable regions; also called chimeric anti-endoglin antibody; c-SN6j) VH: EVKLEESGGGLVQPGGSMKLSCAASGFTFSDAWMDWVRQSPEKGLEWVAEIRSKASNHATYYAESVKGRFTISRDDSKSSVYLQMNSLRAEDTGIYYCTRWRRFFDSWGQGTTLTVSS VL: QIVLSQSPAILSASPGEKVTMTCRASSSVSYMHWYQQKPGSSPKPWIYATSNLASGVPVRFSGSGSGTSYSLTISRVEAEDAATYYCQQWSSNPLTFGAGTKLELK |  | ~0.2 | 0.6 | 3.28e-05 | 54700 | ~0.2 | ~0.2 | ~0.2 | ~0.2 | ~0.2 | ~0.2 | ~0.2
